According to patent US9333272B2, “Fibrin binding peptide conjugates for diagnostic and therapeutic applications” (Bracco Imaging SpA, priority 2006, dated 2016):
Ends that are not written are not given here.

Molecular target: T1, fibrin in human plasma clots (Homo sapiens, UniProt P02671+P02675+P02679)
T1 construct: tissue Dade Behring Control Plasma N; host or cells: clots formed in vitro from pooled human plasma with Pathromtin SL and CaCl2
T1 sequence (P02671 36-629 limits assumed): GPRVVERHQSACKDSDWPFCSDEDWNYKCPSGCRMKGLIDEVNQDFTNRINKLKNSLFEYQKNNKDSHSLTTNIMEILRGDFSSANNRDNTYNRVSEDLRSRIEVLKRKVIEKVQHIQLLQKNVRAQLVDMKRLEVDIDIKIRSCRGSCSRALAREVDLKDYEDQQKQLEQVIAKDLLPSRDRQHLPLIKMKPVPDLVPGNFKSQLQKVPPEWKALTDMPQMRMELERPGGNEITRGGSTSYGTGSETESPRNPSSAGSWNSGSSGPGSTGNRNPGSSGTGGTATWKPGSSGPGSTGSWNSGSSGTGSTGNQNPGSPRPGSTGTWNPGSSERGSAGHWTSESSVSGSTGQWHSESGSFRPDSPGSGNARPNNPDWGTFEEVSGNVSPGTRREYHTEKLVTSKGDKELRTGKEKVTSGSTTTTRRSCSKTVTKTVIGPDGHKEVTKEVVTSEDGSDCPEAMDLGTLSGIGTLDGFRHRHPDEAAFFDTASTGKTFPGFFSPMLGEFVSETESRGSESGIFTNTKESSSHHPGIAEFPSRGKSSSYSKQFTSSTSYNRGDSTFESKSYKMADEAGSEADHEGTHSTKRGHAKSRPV
T1 sequence (P02675 45-491 limits assumed): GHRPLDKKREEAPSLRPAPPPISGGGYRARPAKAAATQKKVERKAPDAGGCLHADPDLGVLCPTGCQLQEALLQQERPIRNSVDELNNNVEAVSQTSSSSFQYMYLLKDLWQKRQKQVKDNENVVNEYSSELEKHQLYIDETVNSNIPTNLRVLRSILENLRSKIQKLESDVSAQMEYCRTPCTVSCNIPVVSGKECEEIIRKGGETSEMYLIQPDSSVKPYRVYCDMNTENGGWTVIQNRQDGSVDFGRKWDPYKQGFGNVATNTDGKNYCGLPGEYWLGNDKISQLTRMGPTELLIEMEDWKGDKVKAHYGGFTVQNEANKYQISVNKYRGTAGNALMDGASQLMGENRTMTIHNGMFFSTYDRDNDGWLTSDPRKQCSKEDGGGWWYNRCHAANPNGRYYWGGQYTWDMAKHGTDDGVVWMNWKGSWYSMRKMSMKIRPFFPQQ
T1 sequence (P02679 27-437 isoform P02679-2 limits assumed): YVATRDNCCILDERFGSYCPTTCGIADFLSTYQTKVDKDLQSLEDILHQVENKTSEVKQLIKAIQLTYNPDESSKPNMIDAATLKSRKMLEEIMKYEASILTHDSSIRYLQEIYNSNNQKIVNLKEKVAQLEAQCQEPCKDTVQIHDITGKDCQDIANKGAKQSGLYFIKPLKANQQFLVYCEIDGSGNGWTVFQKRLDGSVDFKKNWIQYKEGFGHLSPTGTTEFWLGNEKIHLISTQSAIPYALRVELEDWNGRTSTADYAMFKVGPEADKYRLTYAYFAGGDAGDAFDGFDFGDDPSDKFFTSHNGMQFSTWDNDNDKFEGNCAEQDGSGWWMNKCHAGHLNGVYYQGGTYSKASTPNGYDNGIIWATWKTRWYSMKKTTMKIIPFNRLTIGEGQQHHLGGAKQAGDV
Assay: In vitro MRI of plasma clots at 100 μM (Example 14)
Method: Small plasma clots from different species (human, guinea pig and mouse) were formed by combining citrate plasma (1:3,v/v) phospholipids (Reagent Pathromtin) and CaCl2 0.008 M (Dade Behring, Germany) into small 2 ml vials at 37° C. Clots were washed 3 times with TBS 1× and incubated with contrast agents at a concentration of 100 μM of complex, for 30 minutes at 37° C. Two clots were prepared for each solution of incubation. After the incubation clots were washed 4 times with TBS 1× and placed into small vials filled with TBS 1× for MRI analysis. […] Maximum signal intensity of each clot was measured in recovered MR images and compared to the signal from clots incubated with TBS. […]
High resolution MRI was then performed at 2 Tesla by using T1-weighted Spin-Echo (SE) sequences. T1 maps were also calculated from the acquisitions of 2D gradient echo images or inversion recovery spin echo images.
The maximum signal intensity was measured within a region of interest (ROI) including a clot, drawn by an operator on each MR image using a dedicated software (MR Research Systems Ltd, Surrey UK). Max signal intensity enhancement (Enh %) was determined as: Enh %=100*(SIx−SI0)/SI0 where SI0 and SIx are the signal intensity of clots incubated without and with test compounds, respectively.

## Chelate Complex 1: Gd chelate (four DTPA-Glu) conjugated via linker to fibrin-binding peptide SEQ ID NO:001 (WQPCPAESWTFCWDPGGGK; cysteine pairing not given here; also: Gd chelate (four DTPA-Glu) conjugated via linker, site not given here, metal complex: Gd)
100 μM of complex
  Signal enhancement in clots, comparison in words: provides the maximum signal enhancement
Clots incubated with 100 μM of complex, 30 min, 37°C, T1-weighted MRI at 2T, normalized to chelate complex 1
  Max signal Enhancement at 100 μM: 100%
